US20060204957A1 (published 2006)
Values belong to the binder of their own block, whether it stands above or below them.

B4: MTA1s-stop (other)
chain: MAANMYRVGDYVYFENSSSNPYLIRRIEELNKTANGNVEAKVVCFYRRRDISSTLIALADKHATLSVCYKAGPGADNGEEGEIEEEMENPEMVDLPEKLKHQLRHRELFLSRQLESLPATHIRGKCSVTLLNETESLKSYLEREDFFFYSLVYDPQQKTLLADKGEIRVGNRYQADITDLLKEGEEDGRDQSRLETQVWEAHNPLTDKQIDQFLVVARSVGTFARALDCSSSVRQPSLHMSAAAASRDITLFHAMDTLHKNIYDISKAISALVPQGGPVLCRDEMEEWSASEANLFEEALEKYGKDFTDIQQDFLPWKSLTSIIEYYYMWKTTDRYVQQKRLKAAEAESKLKQVYIPNYNKPNPNQISVNNVKAGVVNGTGAPGQSPGAGRACESCY
B5: MTA1s (other)
chain: MAANMYRVGDYVYFENSSSNPYLIRRIEELNKTANGNVEAKVVCFYRRRDISSTLIALADKHATLSVCYKAGPGADNGEEGEIEEEMENPEMVDLPEKLKHQLRHRELFLSRQLESLPATHIRGKCSVTLLNETESLKSYLEREDFFFYSLVYDPQQKTLLADKGEIRVGNRYQADITDLLKEGEEDGRDQSRLETQVWEAHNPLTDKQIDQFLVVARSVGTFARALDCSSSVRQPSLHMSAAAASRDITLFHAMDTLHKNIYDISKAISALVPQGGPVLCRDEMEEWSASEANLFEEALEKYGKDFTDIQQDFLPWKSLTSIIEYYYMWKTTDRYVQQKRLKAAEAESKLKQVYIPNYNKPNPNQISVNNVKAGVVNGTGAPGQSPGAGRACESCYMSSLRILLDILEEIWWLENANPVRWREARTKPQ
notes: also called MTA1s (short); S2 clone
B8: MTA1s-del (other)
chain: MAANMYRVGDYVYFENSSSNPYLIRRIEELNKTANGNVEAKVVCFYRRRDISSTLIALADKHATLSVCYKAGPGADNGEEGEIEEEMENPEMVDLPEKLKHQLRHRELFLSRQLESLPATHIRGKCSVTLLNETESLKSYLEREDFFFYSLVYDPQQKTLLADKGEIRVGNRYQADITDLLKEGEEDGRDQSRLETQVWEAHNPLTDKQIDQFLVVARSVGTFARALDCSSSVRQPSLHMSAAAASRDITLFHAMDTLHKNIYDISKAISALVPQGGPVLCRDEMEEWSASEANLFEEALEKYGKDFTDIQQDFLPWKSLTSIIEYYYMWKTTDRYVQQKRLKAAEAESKLKQVYIPNYNKPNPNQISVNNVKAGVVNGTGAPGQSPGAGRACESCYMSSDILEEIWWLENANPVRWREARTKPQ

How the values were obtained:
[1] = target: B5; experiment: FIG. 14 legend
[2] = target: T1, Estrogen Receptor α (ER) (UniProt P03372 1-595); experiment: immunoprecipitation with T7-mAb, immunoblot for ERα (FIG. 4D)
T1 construct: Endogenous intracellular receptor in breast cancer cell lysates, and ER where no construct is named; also called ERα; endogenous ER
T1 sequence (looked up): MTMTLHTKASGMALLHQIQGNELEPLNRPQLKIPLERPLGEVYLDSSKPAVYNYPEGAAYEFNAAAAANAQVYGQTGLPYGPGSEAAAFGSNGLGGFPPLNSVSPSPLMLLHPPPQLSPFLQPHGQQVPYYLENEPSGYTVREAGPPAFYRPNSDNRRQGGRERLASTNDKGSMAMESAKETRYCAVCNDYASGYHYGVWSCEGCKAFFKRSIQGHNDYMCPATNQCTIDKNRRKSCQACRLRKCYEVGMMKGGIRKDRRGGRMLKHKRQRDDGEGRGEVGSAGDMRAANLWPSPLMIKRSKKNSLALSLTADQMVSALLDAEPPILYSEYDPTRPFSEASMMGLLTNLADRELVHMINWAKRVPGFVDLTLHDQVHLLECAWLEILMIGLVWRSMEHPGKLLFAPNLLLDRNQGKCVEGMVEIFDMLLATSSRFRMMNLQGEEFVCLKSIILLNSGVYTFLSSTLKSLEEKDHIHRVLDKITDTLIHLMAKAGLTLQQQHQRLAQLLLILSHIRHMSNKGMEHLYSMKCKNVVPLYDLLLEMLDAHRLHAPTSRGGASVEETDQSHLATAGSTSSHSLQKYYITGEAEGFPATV

[3] = target: T2, GAD-ERα (UniProt P03372 1-536); experiment: yeast two-hybrid (FIG. 4B)
T2 construct: range 1-536; Yeast two-hybrid prey; also called GAD-ERα amino acids 1-536
T2 sequence (looked up): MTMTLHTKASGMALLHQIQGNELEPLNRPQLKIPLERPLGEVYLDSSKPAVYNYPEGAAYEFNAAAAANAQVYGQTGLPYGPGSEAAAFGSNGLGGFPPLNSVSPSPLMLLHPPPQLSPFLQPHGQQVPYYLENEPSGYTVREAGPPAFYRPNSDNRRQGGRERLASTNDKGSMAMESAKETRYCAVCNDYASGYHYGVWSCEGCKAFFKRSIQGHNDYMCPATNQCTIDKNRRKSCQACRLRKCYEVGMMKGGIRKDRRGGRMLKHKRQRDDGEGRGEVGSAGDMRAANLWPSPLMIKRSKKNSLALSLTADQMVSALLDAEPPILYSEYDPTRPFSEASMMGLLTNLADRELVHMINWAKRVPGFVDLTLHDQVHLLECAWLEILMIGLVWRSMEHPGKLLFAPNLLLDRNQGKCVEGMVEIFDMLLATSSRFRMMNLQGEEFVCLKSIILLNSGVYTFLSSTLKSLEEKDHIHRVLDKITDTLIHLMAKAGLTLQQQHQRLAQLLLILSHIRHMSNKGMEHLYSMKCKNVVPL

[4] = target: T3, bifunctional ATP sulfurylase/adenosine 5'-phosphosulfate (APS) kinase (UniProt O43252 1-624, limits assumed); experiment: yeast two-hybrid screen for MTA1s-interacting proteins
T3 construct: Two-hybrid isolate
T3 sequence (looked up): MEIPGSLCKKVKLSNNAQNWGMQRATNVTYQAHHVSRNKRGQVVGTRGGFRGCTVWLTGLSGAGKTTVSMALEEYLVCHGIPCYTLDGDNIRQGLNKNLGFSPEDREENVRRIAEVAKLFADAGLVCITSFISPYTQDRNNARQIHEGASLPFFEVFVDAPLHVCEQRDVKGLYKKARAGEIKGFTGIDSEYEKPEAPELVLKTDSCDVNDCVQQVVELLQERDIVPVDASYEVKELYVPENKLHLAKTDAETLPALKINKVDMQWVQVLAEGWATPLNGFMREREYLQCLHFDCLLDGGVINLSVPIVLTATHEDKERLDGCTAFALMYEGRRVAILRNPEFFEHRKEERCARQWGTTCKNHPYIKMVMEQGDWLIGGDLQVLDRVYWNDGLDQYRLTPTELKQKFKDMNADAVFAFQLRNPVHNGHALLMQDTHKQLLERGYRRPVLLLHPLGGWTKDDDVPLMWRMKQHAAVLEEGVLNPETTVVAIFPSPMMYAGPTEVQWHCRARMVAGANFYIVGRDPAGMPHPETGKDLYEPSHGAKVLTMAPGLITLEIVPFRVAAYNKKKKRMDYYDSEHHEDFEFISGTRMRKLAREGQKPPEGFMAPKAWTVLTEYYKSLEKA

[5] = target: T4, Homologs to eukaryotic translation initiation factor 3, subunit 6 (48 kD) (UniProt P60228 1-445, limits assumed); experiment: FIG. 14 legend
T4 construct: Two-hybrid isolate; also called Cone S 64-1
T4 sequence (P60228 whole entry): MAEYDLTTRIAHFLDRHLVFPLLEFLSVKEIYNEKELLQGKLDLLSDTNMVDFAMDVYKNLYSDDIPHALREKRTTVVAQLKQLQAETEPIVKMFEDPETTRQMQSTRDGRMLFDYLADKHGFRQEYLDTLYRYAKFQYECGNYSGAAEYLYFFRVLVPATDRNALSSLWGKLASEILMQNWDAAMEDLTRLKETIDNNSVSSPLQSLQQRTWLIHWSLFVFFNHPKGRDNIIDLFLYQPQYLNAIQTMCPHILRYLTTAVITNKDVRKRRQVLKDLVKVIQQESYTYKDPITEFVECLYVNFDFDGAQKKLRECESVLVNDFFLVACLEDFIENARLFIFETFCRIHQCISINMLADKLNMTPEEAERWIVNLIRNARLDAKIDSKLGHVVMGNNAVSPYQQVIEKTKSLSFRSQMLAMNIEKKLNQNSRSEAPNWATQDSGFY

[6] = target: B8; experiment: GST pull-down (FIG. 4C)
[7] = target: B4; experiment: GST pull-down (FIG. 4C)

B2: Casein Kinase 1, γ2 (enzyme)
chain: not shown
notes: Two-hybrid isolate; also called clone S55-1
- binding result [1]: binds

B3: T7-MTA1sstop (other, not shown: small tags and cut ends)
chain: MAANMYRVGDYVYFENSSSNPYLIRRIEELNKTANGNVEAKVVCFYRRRDISSTLIALADKHATLSVCYKAGPGADNGEEGEIEEEMENPEMVDLPEKLKHQLRHRELFLSRQLESLPATHIRGKCSVTLLNETESLKSYLEREDFFFYSLVYDPQQKTLLADKGEIRVGNRYQADITDLLKEGEEDGRDQSRLETQVWEAHNPLTDKQIDQFLVVARSVGTFARALDCSSSVRQPSLHMSAAAASRDITLFHAMDTLHKNIYDISKAISALVPQGGPVLCRDEMEEWSASEANLFEEALEKYGKDFTDIQQDFLPWKSLTSIIEYYYMWKTTDRYVQQKRLKAAEAESKLKQVYIPNYNKPNPNQISVNNVKAGVVNGTGAPGQSPGAGRACESCY
notes: Expressed in MCF-7 cells for immunoprecipitation with T7-mAb; also called T7-tagged MTA1s-stop
- binding result [2]: no binding

Binder: B4
- binding result [3]: no binding

Binder: B5
- binding result [4]: binds
- binding result [5]: binds

Binder: B8
- binding result [3]: no binding

Other lines, results leading:

- binding result [1]: binds
B1: LMO4 (other, UniProt P61968 1-165, looked up)
chain: MVNPGSSSQPPPVTAGSLSWKRCAGCGGKIADRFLLYAMDSYWHSRCLKCSCCQAQLGDIGTSCYTKSGMILCRNDYIRLFGNSGACSACGQSIPASELVMRAQGNVYHLKCFTCSTCRNRLVPGDRFHYINGSLFCEHDRPTALINGHLNSLQSNPLLPDQKVC
notes: Two-hybrid isolate; also called LIM 04; LIM04

- binding result [6]: no binding
- binding result [7]: no binding
B6: GST-AF2 domain of the ER (receptor, UniProt P03372 282-595, looked up)
chain: SAGDMRAANLWPSPLMIKRSKKNSLALSLTADQMVSALLDAEPPILYSEYDPTRPFSEASMMGLLTNLADRELVHMINWAKRVPGFVDLTLHDQVHLLECAWLEILMIGLVWRSMEHPGKLLFAPNLLLDRNQGKCVEGMVEIFDMLLATSSRFRMMNLQGEEFVCLKSIILLNSGVYTFLSSTLKSLEEKDHIHRVLDKITDTLIHLMAKAGLTLQQQHQRLAQLLLILSHIRHMSNKGMEHLYSMKCKNVVPLYDLLLEMLDAHRLHAPTSRGGASVEETDQSHLATAGSTSSHSLQKYYITGEAEGFPATV
notes: domain: AF2 domain; Immobilized on glutathione-sepharose beads; also called AF2 domain of ERα; not shown: glutathione S-transferase

- binding result [2]: no binding
B7: T7-MTA1sdel (other, not shown: small tags and cut ends)
chain: MAANMYRVGDYVYFENSSSNPYLIRRIEELNKTANGNVEAKVVCFYRRRDISSTLIALADKHATLSVCYKAGPGADNGEEGEIEEEMENPEMVDLPEKLKHQLRHRELFLSRQLESLPATHIRGKCSVTLLNETESLKSYLEREDFFFYSLVYDPQQKTLLADKGEIRVGNRYQADITDLLKEGEEDGRDQSRLETQVWEAHNPLTDKQIDQFLVVARSVGTFARALDCSSSVRQPSLHMSAAAASRDITLFHAMDTLHKNIYDISKAISALVPQGGPVLCRDEMEEWSASEANLFEEALEKYGKDFTDIQQDFLPWKSLTSIIEYYYMWKTTDRYVQQKRLKAAEAESKLKQVYIPNYNKPNPNQISVNNVKAGVVNGTGAPGQSPGAGRACESCYMSSDILEEIWWLENANPVRWREARTKPQ
notes: Expressed in MCF-7 cells for immunoprecipitation with T7-mAb; also called T7-tagged MTA1s-del
